This passage reports ratio to parent results from PMC10685657.

The experiment concerns the target HA-TRIP12. In words: co-IP (IP-GFP, immunoblot for TRIP12; band intensity printed above lanes). As to conditions: HEK293T cells, harvested for lysis 48 h after transfection; HA-TRIP12 co-transfected. For orientation: In western blotting, separated proteins are transferred to a membrane and probed.

For “GFP-EZH2 wildtype (from UniProt Q15910) K634R”, the ratio to parent was determined as 0.16.
